T1: US28 of HCMV strain TB40/E fused to a C-terminal 6His tag (human cytomegalovirus (HCMV) strain …, UniProt P69332 1-354)
T1 construct: also called TB40/E form of US28
T1 chain: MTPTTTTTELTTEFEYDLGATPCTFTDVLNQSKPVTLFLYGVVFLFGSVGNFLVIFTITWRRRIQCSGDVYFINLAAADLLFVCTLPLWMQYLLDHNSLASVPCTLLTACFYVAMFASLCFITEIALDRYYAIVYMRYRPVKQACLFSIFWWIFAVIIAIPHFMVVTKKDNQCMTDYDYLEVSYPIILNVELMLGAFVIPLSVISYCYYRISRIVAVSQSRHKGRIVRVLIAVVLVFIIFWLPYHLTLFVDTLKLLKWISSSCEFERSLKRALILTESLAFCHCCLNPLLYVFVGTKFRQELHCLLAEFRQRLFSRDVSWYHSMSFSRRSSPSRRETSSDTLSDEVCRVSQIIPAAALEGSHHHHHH

T2: US28 of HCMV strain DB fused to a C-terminal 6His tag (human cytomegalovirus (HCMV) strain DB, UniProt P69332 1-354)
T2 chain: T1 chain with T8A, E15D, L18E, G19A, T24V, V49I, D170N

T3: US28 of HCMV strain Merlin fused to a C-terminal 6His tag (human cytomegalovirus (HCMV) strain …, UniProt F5HF62 1-354)
T3 construct: also called Merlin-encoded US28
T3 sequence: T1 chain with T8A, E15D, L18E, G19D, T24V, V49I, S330G

T4: mutated US28 (artificial form with all known US28 mutations) fused to a C-terminal 6His tag (artificial variant of human …, UniProt P69332 1-354)
T4 construct: also called mutated strain; CHO-mutated strain
T4 chain: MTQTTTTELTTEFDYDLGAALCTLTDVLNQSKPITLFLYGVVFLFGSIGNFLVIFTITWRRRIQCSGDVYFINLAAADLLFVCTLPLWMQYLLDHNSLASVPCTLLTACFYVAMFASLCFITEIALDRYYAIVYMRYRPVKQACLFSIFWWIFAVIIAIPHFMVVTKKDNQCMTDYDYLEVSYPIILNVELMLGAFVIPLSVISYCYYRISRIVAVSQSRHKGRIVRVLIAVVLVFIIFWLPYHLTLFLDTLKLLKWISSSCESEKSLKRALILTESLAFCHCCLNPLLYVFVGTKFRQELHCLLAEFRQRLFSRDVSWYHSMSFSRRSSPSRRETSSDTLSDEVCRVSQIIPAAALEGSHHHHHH

T5: US28 of HCMV strain VHL/E fused to a C-terminal 6His tag (human cytomegalovirus (HCMV) strain …, UniProt P69332 1-354)
T5 construct: also called VHL/E-encoded US28
T5 chain: T1 chain with T8A, E15D, L18D, G19E, T24V, F25L, V49I, R267K, V346A

B1: monovalent VUN100 (VHH)
VHH: EVQLVESGGGLVQPGGSLRLACAVSGPGLIFKFTGVAWYRRQVPGAKRGLVALITGDGATRYGDSVKGRFTVSRDIAAKRVYLEMNDLRSEDTAVYYCKTGEYWGQGTQVTVSS
notes: also called Mv VUN100; VUN100 Ab
B2: bivalent VUN100 (VHH)
chain: EVQLVESGGGLVQPGGSLRLACAVSGPGLIFKFTGVAWYRRQVPGAKRGLVALITGDGATRYGDSVKGRFTVSRDIAAKRVYLEMNDLRSEDTAVYYCKTGEYWGQGTQVTVSSGGGGSGGGGSGGGGSGGGGSGGGGSGGGGSEVQLVESGGGLVQPGGSLRLACAVSGPGLIFKFTGVAWYRRQVPGAKRGLVALITGDGATRYGDSVKGRFTVSRDIAAKRVYLEMNDLRSEDTAVYYCKTGEYWGQGTQVTVSSEQKLISEEDLHHHHHH
notes: also called VUN100b; BvVUN100
B3: 7B1F3-Myc (antibody, V domains shown)
VH: EVQLQQSGAELAKPGASVKMSCKASGYTFTNYWMHWVKQRPGQGLEWIGYVNPRTGYTEYNQKFKDKATLTADKSSRTAYMQLSSLTSEDSAVYSCARILNGTGFAYWGQGTLVTVSA
VL: DIVLTQSPSSLTVSVGEKFTMSCKSSQSLLYSSNQKNYLAWYQQKPGQSPKLLIYWASTRESGVPDRFTGSGSGTDFTLAISSVKPEDLAIYYCQQYYSFPLTFGAGTKLEIK
B4: 4H3C3-Myc (antibody, V domains shown)
VH: QVQLQQSGAELAKPGASVKMSCKASGYTFTSYWMHWVKQRPGQGLEWIGYINPSTGYAEYNQKFKDKATLTADKSSSTAYMQLSSLTSEDSAVYYCARLRFGSSGFAYWGQGTLVTVSS
VL: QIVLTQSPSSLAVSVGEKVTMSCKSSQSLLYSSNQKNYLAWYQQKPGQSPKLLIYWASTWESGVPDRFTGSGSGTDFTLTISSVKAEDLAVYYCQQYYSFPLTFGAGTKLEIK
B5: 2F5B11-Myc (antibody, V domains shown)
VH: EVQLQESGAELAKPGASVKMSCKASGYTFSSYWIHWIKQRPGQGLEWIGYINPNTAYTEFNQKFMDKATLTADKSSSTAYMQLTSLTSEDSAVYYCARLRSDRTGFAYWGQGTLVTVSA
VL: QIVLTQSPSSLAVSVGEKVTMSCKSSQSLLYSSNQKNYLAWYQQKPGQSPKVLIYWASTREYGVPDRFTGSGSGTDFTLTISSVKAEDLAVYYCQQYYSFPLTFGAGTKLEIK

Numbering of substitutions follows the chain as printed. Bounds are passed on as bounds.

In the first assay the target is T1, US28 of HCMV strain TB40/E fused to a …. The experiment in a line: flow cytometry, CHO cells (FIG. 21C). (In flow cytometry, cells or beads pass a laser one at a time.)
With B1, the “% change in absolute binding between the DB and TB40/E forms” value is over 35%.
The same measure, in the same setting: the result for B2 reads over 40%.

For a further assay the target is unchanged. Nature of the assay: flow cytometry, CHO cells (FIG. 21D).
Consider B1, for which the “% retention of binding activity between the DB and TB40/E forms” value is at most 60%.
Still for that read-out and setting: the result for B2 reads at most 60%.

For a further assay, the target named is T2, US28 of HCMV strain DB fused to a …. Nature of the assay: flow cytometry, processed data of FIG. 33.
Turning to B3, the “variation in binding relative to US28 as encoded by VHL/E” value (“variation in binding relative to US28” for short) came out at 0.64.
As for B2, the “variation in binding relative to US28” value was -2.92.
In the case of B4, the “variation in binding relative to US28” value came to 0.59.
The same measure, in the same setting: the result for B5 reads -0.04.

In another assay the target is T1, US28 of HCMV strain TB40/E fused to a …. The experiment in a line: flow cytometry, processed data of FIG. 33.
With B3, the “variation in binding relative to US28” value is 0.14.
Same read-out and setting: the figure for B2 is -14.8; for B4 it is -0.16.
With B5, the “variation in binding relative to US28” value is -0.92.

Another assay has as its target T3, US28 of HCMV strain Merlin fused to a …. The experiment in a line: flow cytometry, processed data of FIG. 33.
With B3, the “variation in binding relative to US28” value amounted to 0.21.
In the case of B2, the “variation in binding relative to US28” value was -2.41.
Still for that read-out and setting: the result for B4 reads -0.38; that for B5, 0.01.

In another assay the target is T4, mutated US28 (artificial form with all …). Nature of the assay: flow cytometry, CHO cells expressing the mutated US28.
As for B1, the “% of cells bound” value was 1.41% and the binding result is “no binding”.
Consider B2, for which the “% of cells bound” value came out at 2.58%.

Another assay addresses T2, US28 of HCMV strain DB fused to a …. Nature of the assay: flow cytometry, CHO cells expressing US28 of strain DB.
Take B1: the “% of cells bound” value was 6.91%.
Consider B2, for which the “% of cells bound” value came to 9.24%.

Another assay deals with T5, US28 of HCMV strain VHL/E fused to a …. The experiment in a line: flow cytometry, processed data of FIG. 33; reference.
As for B3, the “variation in binding relative to US28” value stood at 0.
Still for that read-out and setting: the figure for B2 is 0; for B4 it is 0; for B5 it is 0.

For another assay, the target named is T1, US28 of HCMV strain TB40/E fused to a …. The experiment in a line: flow cytometry, CHO cells expressing US28 of strain TB40/E.
B1: the “% of cells bound” value was determined as 4.33%.
The same measure, in the same setting: the result for B2 reads 5.2%.

A further assay has as its target T2, US28 of HCMV strain DB fused to a …. Nature of the assay: flow cytometry, transfected HEK Phoenix cells, 6.76 nM.
Regarding B3, the “binding value (Preliminary Binding Data)” value was 0.91.
Same read-out and setting: the result for B2 reads 0.62; that for B4, 0.37; that for B5, 1.04.

The target in the next assay is T1, US28 of HCMV strain TB40/E fused to a …. The description is as above.
Consider B3, for which the “binding value (Preliminary Binding Data)” value came out at 0.42.
On the same count and under the same terms, the result for B2 reads 0.16; that for B4, 0.14.
On the same count and under the same terms, the result for B5 reads 0.57.

For the next assay, the target named is T5, US28 of HCMV strain VHL/E fused to a …. The assay is described as above.
B3: the “binding value (Preliminary Binding Data)” value was found to be 0.37.
For the molecule B2, the “binding value (Preliminary Binding Data)” value was 2.29.
Same read-out and setting: the figure for B4 is 0.16.
On the same count and under the same terms, the result for B5 reads 1.08.

The target in another assay is T3, US28 of HCMV strain Merlin fused to a …. The description is as above.
B3: the “binding value (Preliminary Binding Data)” value worked out at 0.45.
Take B2: the “binding value (Preliminary Binding Data)” value is 0.71.
The same measure, in the same setting: the figure for B4 is 0.12.
Take B5: the “binding value (Preliminary Binding Data)” value worked out at 1.09.

In another assay the target is T4, mutated US28 (artificial form with all …). Nature of the assay: flow cytometry, CHO-mutated strain against control CHO cells (FIG. 21B).
On to B1, for which the “specificity (US28 cells over control cells)” value is under 1 fold.
Same read-out and setting: the result for B2 reads 2.43 fold.
